PMC8632923

Key:
Conditions in all cases: reference: wild type; sites Y38
Drp1 [1] = biological target: Drp1 (UniProt O00429); assay: anti-Flag IP of Fis1-Flag, Drp1 blot
Drp1 [2] = biological target: Drp1 (UniProt O00429); assay: Flag-bead Fis1 pull-down of recombinant Drp1
Drp1 [3] = biological target: Drp1 (UniProt O00429); assay: co-IP, immunoblot

Measured: binding against the reference

Fis1 (from UniProt Q9Y3D6) Y38F
weaker: Drp1 [1] | Drp1 [2] | Drp1 [3]
